Measured values as given in patent publication US20090143241A1.

Target: ClpXP protease (E. coli ClpX6 with ClpP14) (E. coli) (UniProt P0A6H1)
Assay: cell-based or functional assay

ClpXP protease (E. coli ClpX6 with ClpP14) (E. coli), sequence (P0A6H1 whole entry, chain 1 of 2): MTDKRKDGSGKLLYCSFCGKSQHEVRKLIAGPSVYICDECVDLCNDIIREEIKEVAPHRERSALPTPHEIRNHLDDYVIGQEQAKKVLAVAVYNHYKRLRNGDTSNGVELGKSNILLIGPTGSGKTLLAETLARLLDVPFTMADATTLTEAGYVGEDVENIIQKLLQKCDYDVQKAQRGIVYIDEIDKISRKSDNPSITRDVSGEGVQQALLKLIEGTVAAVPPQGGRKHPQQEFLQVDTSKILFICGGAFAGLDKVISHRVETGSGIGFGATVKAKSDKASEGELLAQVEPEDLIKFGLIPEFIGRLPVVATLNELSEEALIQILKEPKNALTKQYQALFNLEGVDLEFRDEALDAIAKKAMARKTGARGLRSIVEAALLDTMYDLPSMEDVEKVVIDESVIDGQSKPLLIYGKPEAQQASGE
ClpXP protease (E. coli ClpX6 with ClpP14) (E. coli), sequence (P0A6G7 15-207, chain 2 of 2, further chain): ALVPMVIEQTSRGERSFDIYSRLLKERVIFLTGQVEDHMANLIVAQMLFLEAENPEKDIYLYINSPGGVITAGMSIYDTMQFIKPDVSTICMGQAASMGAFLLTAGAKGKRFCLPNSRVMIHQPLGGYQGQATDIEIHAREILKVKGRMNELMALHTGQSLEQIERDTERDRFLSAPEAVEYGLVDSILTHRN

**Q.** “λ O protein, N-terminally His6-tagged (from UniProt P03688 1-333)” was tested. Which half-life of λ O with ClpXP, no inhibitor did it give?
**A.** 35 min
